Laboratory results reported in US7470769B2, “Epidermal growth factor receptor antagonists and methods of use” (Molecular Logix, Inc., priority 2004, dated 2008).

What was measured:
[1] = molecular target: T1, EGFR in the form of A431 cell membrane receptor preparations (Homo sapiens, UniProt P00533); test: EGFR kinase ELISA; assay type: biochemical; conditions: variant alone, compared with MLX hEGF
T1 construct: EGFR in the form of A431 cell membrane receptor preparations; endogenous in cells; host or cells: A431 cell membranes
Protocol: (§1) To examine the kinase activity of epidermal growth factor receptor (EGFR) in the presence of hEGF and EGF variants, an ELISA was developed. Briefly, an ELISA plate is coated with poly-glu, tyr (4:1) which serves as a substrate for tyrosine phosphorylation by the EGFR. The ELISA plate is then incubated with assay buffer, which includes an ATP generating system, EGFR in the form of A431 cell membrane receptor preparations, and EGF variant. After a 15 minute incubation ATP is added to the reaction to allow the kinase activity to proceed. Anti-phosphotyrosine antibody is added to bind to the phosphorylated tyrosine bound to the plate. Anti-mouse HRP conjugate antibody is added as the detection antibody, which is visualized with the addition of tetramethyl benzidine (TMB).
The glycine at position 18 was replaced by glutamate (G18E), glutamine (G18Q), lysine (G18K), phenylalanine (G18F), and leucine (G18L). These variants were tested in the kinase assay described above and compared with recombinant wild-type human EGF (MLX hEGF).
The following variations in the glycine at position 39 were made: G39E, G39Q, G39K, and G39L.

[2] = test system: HER5 cell line (expresses the human EGF receptor); test: HER5 cell proliferation assay (WST-1); assay type: cell-based, murine; conditions: 48 hour proliferation, serum-free, WST-1 OD 450
Protocol: The HER5 cell line, a murine fibroblast line (derived from the NR-6 line) that has been stably transfected to express the human EGF receptor was provided by Dr. M. C. Hung (MD Anderson Cancer Center). Stock cultures of HER5 were propagated in D-MEM/F12 medium containing 10% fetal bovine serum, 100 units/ml of penicillin and 100 ug/ml of streptomycin in a water-jacketed incubator at 37° C. in a humidified 5% CO2 atmosphere. For HER5 proliferation assays, the cells were changed into DMEM/F12 without serum for 24 hours. Cells were then trypsinized and suspended at 1E5 cells/ml. Serial dilutions of hEGF (PeproTech, Rocky Hill, N.J.), His-tagged hEGF, test proteins were prepared in serum-free DMEM/F12 at 2-fold the final concentration and plated into the wells of 96-well plates. Fifty microliters of cell suspension (5000 cells) were added to appropriate wells bringing the total volume to 100 ul at the desired concentrations. Plates were incubated for a 48 hour proliferation period. Cell proliferation was determined by addition of 10 ul/well of WST-1 Cell Proliferation Reagent (Roche Applied Sciences, Indianapolis, Ind.) for the last three hours of the proliferation period. […] The amount of formazan was measured at 450 nm using a microplate reader (Dynex Technologies) with MRX Revelation software.

[3] = test system: BALB/3T3 cells; test: BALB/3T3 proliferation competition assay with hEGF; assay type: cell-based, murine; conditions: 0.5 nM and 5.0 nM hEGF, 48 hours
Protocol: The BALB/3T3 proliferation assay was modified to test variants for competition with hEGF in the stimulation of BALB/3T3 cell proliferation. Serial dilutions of the test mutants were tested for proliferation in the presence of 0 nM, 0.5 nM, and 5 nM of the MLX-hEGF. BALB/3T3 cells were suspended at 3E4 cells/ml in complete serum media. 100 ul of cell suspension was plated per well in 96-well plates and incubated for 20-24 hours. Media was then aspirated from the wells, and the cells were washed once with DPBS. His-tagged wild-type hEGF at twice the final concentration was added in 50 ul/well. Serial dilutions of test mutants were prepared at twice the final concentration in serum-free media and 50 ul was added per well, bringing the final volume per well to 100 ml at the target concentrations of wt-hEGF and test mutants. Assay plates were incubated for 48 hours and cell proliferation was determined with WST-1 cell proliferation reagent (10 ul/well, 5 hr incubation). The absorbance at 450 nm was read with a microplate reader.

[4] = test system: hEGF-stimulated cell proliferation; test: Inhibition of hEGF-stimulated cell proliferation (FIG. 4, FIG. 5); assay type: cell-based; conditions: figure legends, cell line not stated
[5] = molecular target: T1, EGFR in the form of A431 cell membrane receptor preparations; test: EGFR kinase competition ELISA; assay type: biochemical; conditions: 50 nM human EGF added
Protocol: as §1
The EGFR kinase competition assay is basically the same as outlined above in the description of the kinase ELISA. The difference is that in the initial incubation with the EGFR and EGF variant, 50 nM human EGF is added which competes with the EGF variant for binding to the EGFR. Both the variant EGF and the human EGF are added to the assay plate before the addition of the EGFR and assay buffer, making sure neither ligand has an advantage in binding to the EGFR.

[6] = molecular target: EGFR (Homo sapiens, UniProt P00533); test: EGFR dimerization (FIG. 6)

Substance	activation of the EGFR kinase [1]	potency in the HER5 proliferation assay [2]	competition with hEGF in stimulation of BALB/3T3 cell proliferation [3]	inhibition of hEGF-stimulated cell proliferation [4]	competition with hEGF-related stimulation of EGFR kinase [5]	triggering of EGFR dimerization [6]
G39E: hEGF polypeptide variant, G39 replaced by glutamate (NSDSECPLSHDGYCLHDGVCMYIEALDKYACNCVVGYIEERCQYRDLKWWELR; not fully specified; left off: small tags and cut ends)	some slight activity	–	–	–	–	–
G39K: hEGF polypeptide variant, G39 replaced by lysine (NSDSECPLSHDGYCLHDGVCMYIEALDKYACNCVVGYIKERCQYRDLKWWELR; not fully specified; left off: small tags and cut ends)	some slight activity	least potency in that series	Apparent competition was observed at both hEGF concentrations	–	–	–
G39L: hEGF polypeptide variant, G39 replaced by leucine (NSDSECPLSHDGYCLHDGVCMYIEALDKYACNCVVGYILERCQYRDLKWWELR; not fully specified; left off: small tags and cut ends)	–	least potency in that series	only seen in at 0.5 nM hEGF	inhibition of hEGF-stimulated cell proliferation	marked interference with hEGF-related stimulation of EGFR kinase	–
V35EG39L: hEGF polypeptide variant, glycine 39 substituted with leucine and valine 35 with glutamic acid (NSDSECPLSHDGYCLHDGVCMYIEALDKYACNCVEGYILERCQYRDLKWWELR; not fully specified; left off: small tags and cut ends)	unable to activate the EGFR kinase	–	–	inhibition of hEGF-stimulated cell proliferation	marked interference with hEGF-related stimulation of EGFR kinase	does not trigger EGFR dimerization
